Source: patent US20190076400A1 (PROTAGONIST THERAPEUTICS, published 2019)
Square brackets hold non-standard residues; d marks the D form. Ends that are not written are not given here. Dmt = Cc1cc(O)cc(C)c1C[C@H](N)C(=O)O; NMeY = CN[C@@H](Cc1ccc(O)cc1)C(=O)O; NMeCha = CN[C@@H](CC1CCCCC1)C(=O)O; NMeF = CN[C@@H](Cc1ccccc1)C(=O)O; NMeI = CC[C@H](C)[C@H](NC)C(=O)O; NMePhg = CN[C@H](C(=O)O)c1ccccc1; β3hF = N[C@H](CC(=O)O)Cc1ccccc1; NMeNle = CCCC[C@H](NC)C(=O)O; NMeA = CN[C@@H](C)C(=O)O; Sar = CNCC(=O)O

B1: [DMT-((D)Ala)-Gly-(β-homoPhe)-(Sar)]2-Lys (peptide)
peptide: H-[Dmt][dA]G[β3hF][Sar]K
modifications: also: homodimer: two monomers joined at X5 through a lysine linker (Dimer A)
B2: [DMT-((D)Ala)-Gly-(β-homoPhe)-(NMe-Ala)]2-Lys (peptide)
peptide: H-[Dmt][dA]G[β3hF][NMeA]K
modifications: also: homodimer: two monomers joined at X5 through a lysine linker (Dimer A)
B3: [DMT-((D)Ala)-Gly-(β-homoPhe)-(NMe-Ile)]2-Lys (peptide)
peptide: H-[Dmt][dA]G[β3hF][NMeI]K
modifications: also: homodimer: two monomers joined at X5 through a lysine linker (Dimer A)
B4: [DMT-((D)Ala)-Gly-(β-homoPhe)-(Sar)]2-(D-Lys) (peptide)
peptide: H-[Dmt][dA]G[β3hF][Sar][dK]
modifications: also: homodimer: two monomers joined at X5 through a D-lysine linker (Dimer A)
B5: [DMT-((D)Ala)-Gly-(β-homoPhe)-(Sar)-(D-Lys)]2-DIG (peptide)
peptide: H-[Dmt][dA]G[β3hF][Sar][dK]
modifications: not fully specified (C-terminus); printed as [DMT-((D)Ala)-Gly-(β-homoPhe)-(Sar)-(D-Lys)]2-DIG; also: homodimer: the two D-Lys joined through DIG linker (Dimer C)
B6: H-DMT-a-Ala-bhF-Sar-NH2 (peptide)
peptide: H-[Dmt][dA]A[β3hF][Sar]-NH2
SMILES: Cc1cc(O)cc(C)c1C[C@H](N)C(=O)N[C@H](C)C(=O)N[C@@H](C)C(=O)N[C@H](CC(=O)N(C)CC(N)=O)Cc1ccccc1
B7: H-DMT-(D)Asp-G-bhF-N(Me)-Tyr-OH (peptide)
peptide: H-[Dmt][dD]G[β3hF][NMeY]-OH
SMILES: Cc1cc(O)cc(C)c1C[C@H](N)C(=O)N[C@H](CC(=O)O)C(=O)NCC(=O)N[C@H](CC(=O)N(C)[C@@H](Cc1ccc(O)cc1)C(=O)O)Cc1ccccc1
B8: H-DMT-(D)Thr-G-bhF-N(Me)-Ala-OH (peptide)
peptide: H-[Dmt][dT]G[β3hF][NMeA]-OH
SMILES: Cc1cc(O)cc(C)c1C[C@H](N)C(=O)N[C@@H](C(=O)NCC(=O)N[C@H](CC(=O)N(C)[C@@H](C)C(=O)O)Cc1ccccc1)[C@H](C)O
B9: H-DMT-(D)Glu-G-bhF-Sar-NH2 (peptide)
peptide: H-[Dmt][dE]G[β3hF][Sar]-NH2
SMILES: Cc1cc(O)cc(C)c1C[C@H](N)C(=O)N[C@H](CCC(=O)O)C(=O)NCC(=O)N[C@H](CC(=O)N(C)CC(N)=O)Cc1ccccc1
B10: H-DMT-(D)Asp-G-bhF-Gly-NH2 (peptide)
peptide: H-[Dmt][dD]G[β3hF]G-NH2
SMILES: Cc1cc(O)cc(C)c1C[C@H](N)C(=O)N[C@H](CC(=O)O)C(=O)NCC(=O)N[C@H](CC(=O)NCC(N)=O)Cc1ccccc1
B11: H-DMT-(D)Thr-G-bhF-N(Me)-Ile-OH (peptide)
peptide: H-[Dmt][dT]G[β3hF][NMeI]-OH
SMILES: CC[C@H](C)[C@@H](C(=O)O)N(C)C(=O)C[C@H](Cc1ccccc1)NC(=O)CNC(=O)[C@H](NC(=O)[C@@H](N)Cc1c(C)cc(O)cc1C)[C@H](C)O
B12: H-DMT-(D)Asp-G-bhF-N(Me)-Phe-OH (peptide)
peptide: H-[Dmt][dD]G[β3hF][NMeF]-OH
SMILES: Cc1cc(O)cc(C)c1C[C@H](N)C(=O)N[C@H](CC(=O)O)C(=O)NCC(=O)N[C@H](CC(=O)N(C)[C@@H](Cc1ccccc1)C(=O)O)Cc1ccccc1
B13: H-DMT-(D)Glu-G-bhF-N(Me)-Ile-OH (peptide)
peptide: H-[Dmt][dE]G[β3hF][NMeI]-OH
SMILES: CC[C@H](C)[C@@H](C(=O)O)N(C)C(=O)C[C@H](Cc1ccccc1)NC(=O)CNC(=O)[C@@H](CCC(=O)O)NC(=O)[C@@H](N)Cc1c(C)cc(O)cc1C
B14: H-DMT-(D)Asp-G-bhF-N(Me)-Phg-OH (peptide)
peptide: H-[Dmt][dD]G[β3hF][NMePhg]-OH
SMILES: Cc1cc(O)cc(C)c1C[C@H](N)C(=O)N[C@H](CC(=O)O)C(=O)NCC(=O)N[C@H](CC(=O)N(C)[C@H](C(=O)O)c1ccccc1)Cc1ccccc1
B15: H-DMT-(D)Asp-G-bhF-N(Me)-Nle-OH (peptide)
peptide: H-[Dmt][dD]G[β3hF][NMeNle]-OH
B16: H-DMT-(D)Asp-G-bhF-N(Me)-Cha-OH (peptide)
peptide: H-[Dmt][dD]G[β3hF][NMeCha]-OH
SMILES: Cc1cc(O)cc(C)c1C[C@H](N)C(=O)N[C@H](CC(=O)O)C(=O)NCC(=O)N[C@H](CC(=O)N(C)[C@@H](CC1CCCCC1)C(=O)O)Cc1ccccc1
B17: H-DMT-(D)Glu-G-bhF-N(Me)-Ala-OH (peptide)
peptide: H-[Dmt][dE]G[β3hF][NMeA]-OH
SMILES: Cc1cc(O)cc(C)c1C[C@H](N)C(=O)N[C@H](CCC(=O)O)C(=O)NCC(=O)N[C@H](CC(=O)N(C)[C@@H](C)C(=O)O)Cc1ccccc1

molecular target: T1, µ-opioid receptor (MOR), Human-ORPM1 (human, UniProt P35372 1-400); assay: cell-based or functional assay
T1 sequence (P35372 whole entry): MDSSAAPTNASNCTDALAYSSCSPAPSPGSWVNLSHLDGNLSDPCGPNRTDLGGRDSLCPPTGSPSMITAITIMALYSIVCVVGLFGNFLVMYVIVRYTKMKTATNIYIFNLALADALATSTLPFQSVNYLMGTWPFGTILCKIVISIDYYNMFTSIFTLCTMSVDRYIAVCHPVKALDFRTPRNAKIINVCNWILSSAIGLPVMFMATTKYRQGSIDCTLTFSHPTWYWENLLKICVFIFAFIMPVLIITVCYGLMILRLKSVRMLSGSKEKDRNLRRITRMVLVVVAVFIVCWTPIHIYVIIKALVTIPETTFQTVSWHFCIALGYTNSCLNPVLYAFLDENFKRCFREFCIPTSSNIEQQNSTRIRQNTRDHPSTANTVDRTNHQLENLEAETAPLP

B1 and B2 cannot be ordered by “MOR EC50” value: no more than 1 nM for the first, no more than 1 nM for the second.

B3 and B4 cannot be ordered by “MOR EC50” value: no more than 10 nM for the first, no more than 10 nM for the second.

For B5, the “MOR EC50” value was no more than 10 nM.

molecular target: T2, δ-opioid receptor (DOR), Human-ORPD1 (human, UniProt P41143 1-372); assay: cell-based or functional assay
T2 sequence (P41143 whole entry, stated change not applied): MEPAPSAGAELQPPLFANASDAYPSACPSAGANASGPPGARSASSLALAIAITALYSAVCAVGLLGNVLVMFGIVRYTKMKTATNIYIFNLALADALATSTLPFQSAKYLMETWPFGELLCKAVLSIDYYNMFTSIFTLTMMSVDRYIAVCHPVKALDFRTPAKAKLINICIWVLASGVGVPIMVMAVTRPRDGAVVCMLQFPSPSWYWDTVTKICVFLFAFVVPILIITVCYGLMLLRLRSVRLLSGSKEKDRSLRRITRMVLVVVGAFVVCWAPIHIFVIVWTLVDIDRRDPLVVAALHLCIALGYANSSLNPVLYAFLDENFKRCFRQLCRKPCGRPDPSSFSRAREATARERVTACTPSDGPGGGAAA

B1 and B2 cannot be ordered by “DOR EC50” value: no more than 1 nM for the first, no more than 1 nM for the second.

B3 and B4 cannot be ordered by “DOR EC50” value: no more than 10 nM for the first, no more than 10 nM for the second.

B5 was tested, and the “DOR EC50” value was no more than 10 nM.

molecular target: T1, µ-opioid receptor (MOR), Human-ORPM1; assay: cell-based or functional assay; remark: another data set of the same source

With B6 the “MOR EC50” value was no more than 1 nM.

molecular target: T2, δ-opioid receptor (DOR), Human-ORPD1; assay: cell-based or functional assay; remark: another data set of the same source

In the case of B6, the “DOR EC50” value is reported as no more than 1 nM.

molecular target: T1, µ-opioid receptor (MOR), Human-ORPM1; assay: cell-based or functional assay; remark: another data set of the same source

B7 and B8 cannot be ordered by “MOR EC50” value: no more than 1 nM for the first, no more than 1 nM for the second.

B9 and B10 cannot be ordered by “MOR EC50” value: no more than 1 nM for the first, no more than 1 nM for the second.

B11 and B12 cannot be ordered by “MOR EC50” value: no more than 1 nM for the first, no more than 1 nM for the second.

B13 and B14 cannot be ordered by “MOR EC50” value: no more than 10 nM for the first, no more than 1 nM for the second.

B15 and B16 cannot be ordered by “MOR EC50” value: no more than 1 nM for the first, no more than 1 nM for the second.

B17 was tested, and the “MOR EC50” value was no more than 10 nM.

molecular target: T2, δ-opioid receptor (DOR), Human-ORPD1; assay: cell-based or functional assay; remark: another data set of the same source

B7 and B8 cannot be ordered by “DOR EC50” value: no more than 1 nM for the first, no more than 1 nM for the second.

B9 and B10 cannot be ordered by “DOR EC50” value: no more than 10 nM for the first, no more than 1 nM for the second.

B11 and B12 cannot be ordered by “DOR EC50” value: no more than 1 nM for the first, no more than 1 nM for the second.

B13 and B14 cannot be ordered by “DOR EC50” value: no more than 1 nM for the first, no more than 1 nM for the second.

B15 and B16 cannot be ordered by “DOR EC50” value: no more than 1 nM for the first, no more than 1 nM for the second.

For B17, the “DOR EC50” value was no more than 1 nM.

molecular target: T1, µ-opioid receptor (MOR), Human-ORPM1; assay: cell-based or functional assay; remark: another data set of the same source

B6 was tested, and the “MOR cAMP (EC50 nM)” value was no more than 1 nM.

molecular target: T2, δ-opioid receptor (DOR), Human-ORPD1; assay: cell-based or functional assay; remark: another data set of the same source

With B6 the “DOR cAMP (EC50 nM)” value was no more than 1 nM.
